Results on three proteins are retold here after article PMC8354476, “Acyl-CoA oxidase ACOX-1 interacts with a peroxin PEX-5 to play roles in larval development of Haemonchus contortus” (PLoS Pathogens, 2021).

Substrate in the data set: CCCCCCCCCCCCCCCC(=O)SCCNC(=O)CCNC(=O)[C@H](O)C(C)(C)COP(=O)(O)OP(=O)(O)OC[C@H]1O[C@@H](n2cnc3c(N)ncnc32)[C@H](O)[C@@H]1OP(=O)(O)O
Nature of the data set: purified protein. The note with it: 10 μM FAD, 50 mM potassium phosphate. Type of data set: biochemical, Haemonchus contortus.

Setting [1] is: pH 7.5, 42°C (optimum conditions).

B1: rHc-ACOX-1.1 (Haemonchus contortus) (protein)
chain: MPLNKLLRDGDNEDLAEERRKATFDTDEMAAIIWEGKERVRRRREITKKVNEYTELHDPYCQAFMTRHEEVENAARKITKMFSLIDKLGVNPTNAADMAHLTSEVIGLYGHPLALHAVMFIPSLQAQCADDQMHWLKKAMSRQIIGTYAQTELGHGTNLRKLETTATHDANTQEFVLHSPTRTAMKWWPGNLGKSANHAVVVACLIIDGKNYGPHNFIVPLRDPETHMPLKGITVGDIGPKMATGPVDNGFLSFDHYRIPRTNMLMKHAKVTPEGKYIPPAHAKVGYSAMVHVRSHMISDQAKFLAQALTTAIRYSAIRRQGEIQPGDGEVKILEYQTQQYRLLPQLARAYAFSFTGRAVRDLYLRVQKDVAKGKVDEMAELHYITSGLKAVVTHLTGEGISQARMSCGGHGYSKASNMPDLYGIAVADCTYEGENMVMLQQLARYLMRAAGEAEKGRALGRLVNYLVEPSDIHSSIDRQLDYDYKAHLKAFDKAAKLQVMKAYERMRALKAQGLSEEDAWNANAVELNRAARVHTRQYIAHQFYEQVSSVTDGRCREVPRDLLHLHLNYEILDMAYYLLEDGFLSGQQMDYMKEDMYRLLAKLRPNAVSLVDSWDISDHELRSVLGRRDGHVYENLYKWAQESELNRTQVLPTFEKYLKPMMMEAHAQSKL
notes: full-length transcript 2019 nt; N-terminal FLAG tag, pcDNA3.1, expressed in HEK293T cells, purified on anti-FLAG magnetic beads; locus chromosome IV: 9780094-9786809; Thr151, Gly190, Glu433 predicted sites; C-terminal PTS1 (SKL)
In general, Km refers to the substrate concentration at which the rate is half of its maximum. As to B1, where the note is “pH 7.5, 37°C (optimum conditions)”, the Km stood at 78.79 µM.

B2: rHc-ACOX-1.2 (Haemonchus contortus) (protein)
chain: MPFRGITVGDIGPKMAYNGVDNGFLAFHHYRIPRNNMLMKHVKVTPDGKYVPPAHAKVGYSAMVHVRAHMISTQAAFLAQALTTAIRYSAIRRQGEIQPGQGEVKILEYQTQQHRLFPQLARAYAFIFTGQAVRVIFQRVQKDVARGKVDEMAKLHYISSGLKAVVTYLTGQGIEQARMSCGGHGYSKASNMSELYGVAIGGATYEGENMVMLQQLARYLMKSAEAAKSGRAVGKLVDYLVRSSEQRSAIDRQPDHDYSAHLKAFDKAAKLQVMKAYERMQSLRAQGLLEEEAWNANAVELNRAARVHTRQYIARTFDEHVKAVVHGPCREVLLDLLHLHLNYELLDMAYYLLEDGYLSGQQLDYMKEDMYRLLARLRPNIVSLVDSWDFSDHELRSVLGRRDGHVYENLYKWAQESELNRTQVLPTFEKYLKPMMKQAREQSKL
notes: N-terminal FLAG tag, pcDNA3.1, expressed in HEK293T cells, purified on anti-FLAG magnetic beads; locus chromosome IV: 9789018-9796292; Glu206 active site; C-terminal PTS1 (SKL)
B2: under setting [1], the Km was determined as 6.83 µM.

B3: rHc-ACOX-1.3 (Haemonchus contortus) (protein)
chain: MPFRGITVGDIGPKMAYNGVDNGFLAFDHYRIPRNNMLMKHVKVTPEGKYVPPAHAKVGYSAMVHVRAHMISTQAAFLAQALTTAIRYSAIRRQGEIQPGRGEVKILEYQTQQHRLFPQLARAYAFIFTGQAVRVIFQRVQKDVARGKVDEMAELHYISSGLKAVVTYLTGQGIEQARMSCGGHGYSKASNMSELYGVAIGGATYEGENMVMLQQLARYLMKSAEAAKNGRAVGKLVDYLVRSSEQRSAIDRKPDHDYTAHLKAFDKAAKLQVMKAYERMQSLRARGLTEEEAWNANAVELNRAARVHTRQYIARTFDEHVKAVVHGPCREVLLDLLYLHLNYELLDMAYYLLEDGYLSGQQMDYMKEDMYRLLARLRPNIVSLVDSWDFSDHELRSVLGRRDGHVYENLYKWAQESELNRTQVLPTFEKYLKPMMKQAREQSKL
notes: N-terminal FLAG tag, pcDNA3.1, expressed in HEK293T cells, purified on anti-FLAG magnetic beads; Glu206 active site; C-terminal PTS1 (SKL)
B3: under setting [1], the Km amounted to 12.64 µM.
